From patent US20190031771A1 (University of Pennsylvania, published 2019) come the findings set out here.

The target in test [1] is T1, hemagglutinin ectodomain of influenza virus H1/PR/8/34 (influenza virus H1/PR/8/34, UniProt P03452 18-528).
T1 construct: extracellular domain; also called HA H1/PR/8/34
In words: immunoassay or flow cytometry. For orientation: Flow cytometry measures light scatter and fluorescence of single cells or particles in a stream.

Test [2] addresses T2, human ADAMTS13 (human, UniProt Q76LX8 75-1427).
T2 construct: ELISA: full-length recombinant ADAMTS13 coated on plates (Technoclone); Activity assays: endogenous ADAMTS13 of normal human plasma; also called full-length human recombinant ADAMTS13; VWF-cleaving protease
T2 sequence (looked up): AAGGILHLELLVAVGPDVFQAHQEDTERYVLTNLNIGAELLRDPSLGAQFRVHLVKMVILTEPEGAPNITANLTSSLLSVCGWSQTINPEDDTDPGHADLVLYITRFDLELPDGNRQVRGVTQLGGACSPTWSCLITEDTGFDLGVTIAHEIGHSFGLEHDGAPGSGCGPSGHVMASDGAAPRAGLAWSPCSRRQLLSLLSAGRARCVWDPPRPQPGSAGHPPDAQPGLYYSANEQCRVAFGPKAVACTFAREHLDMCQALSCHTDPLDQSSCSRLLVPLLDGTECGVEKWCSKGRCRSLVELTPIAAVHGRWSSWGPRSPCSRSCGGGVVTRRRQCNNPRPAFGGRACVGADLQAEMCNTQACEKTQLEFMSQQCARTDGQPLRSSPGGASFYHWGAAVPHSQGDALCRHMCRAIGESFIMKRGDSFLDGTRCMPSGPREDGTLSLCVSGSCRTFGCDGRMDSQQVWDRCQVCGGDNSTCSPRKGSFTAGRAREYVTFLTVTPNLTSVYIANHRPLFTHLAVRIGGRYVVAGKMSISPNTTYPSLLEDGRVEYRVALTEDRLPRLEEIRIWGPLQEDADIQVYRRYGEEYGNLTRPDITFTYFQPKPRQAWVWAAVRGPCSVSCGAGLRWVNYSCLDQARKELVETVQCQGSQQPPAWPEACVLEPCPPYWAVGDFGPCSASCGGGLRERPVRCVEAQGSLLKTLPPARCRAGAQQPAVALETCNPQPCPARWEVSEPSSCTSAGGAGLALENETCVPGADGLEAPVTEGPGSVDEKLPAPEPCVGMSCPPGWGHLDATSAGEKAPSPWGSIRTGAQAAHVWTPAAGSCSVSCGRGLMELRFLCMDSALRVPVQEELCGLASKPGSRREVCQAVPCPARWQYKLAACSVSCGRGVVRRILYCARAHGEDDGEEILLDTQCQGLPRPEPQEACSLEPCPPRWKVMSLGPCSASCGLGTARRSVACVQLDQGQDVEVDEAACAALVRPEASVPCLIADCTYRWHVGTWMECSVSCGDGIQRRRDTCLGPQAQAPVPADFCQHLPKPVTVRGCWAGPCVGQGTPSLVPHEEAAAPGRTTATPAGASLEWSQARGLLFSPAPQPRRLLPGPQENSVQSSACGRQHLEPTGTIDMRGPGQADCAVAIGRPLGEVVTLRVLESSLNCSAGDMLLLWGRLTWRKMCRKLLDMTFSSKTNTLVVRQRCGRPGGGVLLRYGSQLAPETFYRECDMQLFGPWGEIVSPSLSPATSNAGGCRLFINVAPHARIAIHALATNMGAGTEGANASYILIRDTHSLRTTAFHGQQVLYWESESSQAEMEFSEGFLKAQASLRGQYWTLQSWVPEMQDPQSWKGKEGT
In words: phage ELISA on ADAMTS13-coated plates (positive: >10-fold absorbance above background).

T1 sequence (P03452 18-528): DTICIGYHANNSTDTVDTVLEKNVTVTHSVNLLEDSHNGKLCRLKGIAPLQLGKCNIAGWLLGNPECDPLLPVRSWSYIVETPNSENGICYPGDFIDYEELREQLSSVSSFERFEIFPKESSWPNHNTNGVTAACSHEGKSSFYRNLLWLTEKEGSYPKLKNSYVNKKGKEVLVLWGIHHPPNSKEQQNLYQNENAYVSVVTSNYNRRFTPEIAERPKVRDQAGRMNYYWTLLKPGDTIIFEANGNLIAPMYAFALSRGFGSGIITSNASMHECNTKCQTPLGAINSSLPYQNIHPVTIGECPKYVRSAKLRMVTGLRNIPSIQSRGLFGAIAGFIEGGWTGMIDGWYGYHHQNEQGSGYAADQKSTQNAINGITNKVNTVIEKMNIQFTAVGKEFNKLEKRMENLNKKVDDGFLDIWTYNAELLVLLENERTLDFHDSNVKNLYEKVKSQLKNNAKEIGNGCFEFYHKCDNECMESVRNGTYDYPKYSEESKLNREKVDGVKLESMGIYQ

B1: scFv 3-302 (scFv, V domains shown)
VH: QVQLVQSGAEVKRPGSSVKVSCKASGNTFSNYHINWVRQAPGQGLQWMGGIIPILGRTNYAQNFQGRVTITTDESTNTAYMELTSLRSEDTAVYYCAREARDSFDFWGQGTMVTVSS
VL: ELVLTQPPSVSVSPGQTASITCSGDKLGHTYTSWYQQKPGQSPVLVIYQDNRRPSGLPERFSGSNSGNTATLTISRVEAGDEADYYCQVWESSSDHLVFGGGTELTVL
On to B1, for which the results for the binding result in test [1] and in test [2] were “no binding” and “binds”, respectively.

B2: scFv 1-303 (scFv, V domains shown)
VH: QVQLVQSGAEVKKFGSSVKVSCKASGGTFSSYTMSWVRQAPGQGLEWMGSFIPILERANYAQKFQGRVTLTADKSTSTAYMELGSLRSEDTAVYYCARDLGDFGDSWGQGTLVTVSS
VL: ELELTQPPSVSVAPGKTARITCGGNNIGSKSVHWYQQKPGQAPVLVVYDDSDRPSGIPERFSGSNSGNTATLTISRVEAGDEADYYCQVWDSSSDHYVFGTGTKVTVL
B2: the binding result is reported as “no binding” in test [1] and “binds” in test [2].

B3: scFv 1-438 (scFv, V domains shown)
VH: QVQLVQSGAEVKKPGSSVKVSCKASGGTFSNYDITWVRQAPGQGLEWVGKVIPILDVTNYAQKFQGRVTITADKSTSTAYMELSNLTSEDTAVYFCARFLWGLDVWGQGTMVTVSS
VL: ELVLTQPPSVSVAPGQTARITCGGNNIGSKSVHWYQQKPGQAPVLVVYDDSDRPSGIPERFSGSNSGNTATLTISRVEAGDEADYYCQVWDSSSDHKVFGGGTELTVL
For B3, the results for the binding result in test [1] and in test [2] were “no binding” and “binds”, respectively.

B4: scFv 1-434 (scFv, V domains shown)
VH: QVQLVQSGAEVKKPGSSVKVSCKASGGSFSDYTIIWLRQARGHGLEWMGKIVPILGVTTYAQEFQGRITITADRSTSTAYMELSSLRSEDTAVYYCARFLWGLDVWGQGTTVTVSS
VL: ELVLTQPPSVSVAPGQTARITCGGNNIGSKSVHWYQQKPGQAPVLVVYDDSDRPSGIPERFSGSNSGNTATLTISRVEAGDEADYYCQVWDSSSDHVVFGGGTELTVL
Turning to B4, the results for the binding result in test [1] and in test [2] were “no binding” and “binds”, respectively.

B5: scFv 1-406 (scFv, V domains shown)
VH: QVQLVQSGAEVKKFGSSVKVSCKASGGMFSSYTISWVRQGPGQGLEWMGSFIPILERANYAQKFQGRVSFTADKSTSTAYMELGSLTSEDTAVYFCARDVGDFGDSWGQGTLVTVSS
VL: ELELTQPPSVSVFPGQTARITCSGDTLPKQYGNWYQQKPGQAPVVVIYKDTERPSGIPERFSGSSSGTTATLTISGVQAEDEADYYCQSADSNDWVLFGGGTKLTVL
For the molecule B5, in test [2], the binding result is “binds”.

B6: scFv 4-307 (scFv, V domains shown)
VH: QVQLVQSGAEVKKPGSSVKVSCKASGGTFSTYTINWMRQAPGQGLEWMGRIIPMFGTANYAQKFRGRVTITADESTSTAYMELSSLISEDTAIYYCARSGYSDAFDIWGQGTMVTVSS
VL: ELVLTQPPSVSVAPGTTARITCGGNNIGSKSVHWYQQKPGQAPVLVIYYDSDRPSGIPERFSGSNSGNTATLTISRVEAGDEADYYCQVWDSSSDQGVFGGGTQLTVL
For B6, the binding result in test [2] was “binds”.

B7: scFv 3-305 (scFv, V domains shown)
VH: QVQLVQSGAEVKRPGSSVKVSCKASGNTFSNYHINWVRQAPGQGLQWMGGIIPILGRTNYAQNFQGRVTITTDESTNTAYMELTSLRSEDTAVYYCAREARDSFDFWGQGTMVTVSS
VL: ELVLTQPPSVSVAPGKTARITCGGNNIGSKSVHWYQQKPGQAPVLVVYDDSDRPSGIPERFSGSNSGNTATLTISRVEAGDEADYYCQVWDSSSDHWVFGGGTQLTVL
With B7, the binding result in test [2] is “binds”.

B8: scFv z1-303 (scFv, V domains shown)
VH: QVQLQESGPGLVRPSQTLSLTCAISGDSVSNNNAAWNWIRQSPSRGLEWLGRTFYRSRWYNDYAVSVKSRIIINPDTSKNQFSLDLTSVTPEDTAVYFCAREGQWLPNYFDPWGQGTLVTVSS
VL: ELVLTQPPSVSVAPGQTARITCGGNNIGSKSVHWYQQKPGQAPVLVVYDDSDRPSGIPERFSGSNSGNTATLTISGVEVGDEADYYCQVWDSSRDHVVFGGGTELTVL
In the case of B8, in test [2], the binding result is listed as “binds”.

B9: scFv 2-102 (scFv, V domains shown)
VH: QVQLVQSGAEVKKPGSSVKVSCRASGGTFSSYTINWVRQAPGQGLEWMGRVVPILGVTNYAQKFQGRVTITADKSTSTAYMELSSLRSEDTAVYYCARDKGYDNNYGAYWGQGTLVTVSS
VL: ELVVTQPPSVSVAPGQTARITCGGNNIGSINVHWYQQKPGQAPVLVVYDDSARPSGIPERFSGSNSGNTATLTISRVEAGDEADYYCQVWDSRSDYWVFGGGTKVTVL
As to B9, in test [1], the binding result was “no binding”.

B10: scFv 2-103 (scFv, V domains shown)
VH: QVQLVQSGAEVKKPGSSVKVSCKASGGTFSSYDINWVRQAPGQGLEWMGSIIPILGISNYAQKFQGRVTITADKSTSTAYMELSSLRSEDTAVYYCARDQGYANNYGAYWGQGTLVTVSS
VL: ELVLTQPPSVSVAPGQTARITCGGNNIGSKSVHWYQQKPGQAPVVVVYDDSDRPSGIPERFSGSNSGNTATLTISRVEAGDEADYYCQVWDSSSDHWVFGGGTELTVL
Take B10: the binding result in test [1] is “no binding”.

B11: scFv 3-405 (scFv, V domains shown)
VH: QVQLVQSGAEVKRPGSSVKVSCKASGNTFSNYHINWVRQAPGQGLQWMGGIIPILGRTNYAQNFQGRVTITTDESTNTAYMELTSLRSEDTAVYYCAREARDSFDFWGQGTMVTVSS
VL: ELVLTQPPSVSVAPGKTARITCGENNIGSKSVHWYQQKPGQAPVLVIYYDTDRPSGIPARFSGSNSGNTATLTISRVEAGDEADYYCQVWDSSSDQRVFGGGTELTVL
In the case of B11, the results for the binding result in test [1] and in test [2] were “no binding” and “binds”, respectively.

B12: scFv 4-303 (scFv, V domains shown)
VH: QVQLVQSGAEVKKPGSSVKVSCKASGGTFSNYGISWVRQAPGQGLEWMGKIIPILGITNYAQKFQGRVTITADKSTSTAYMELSSLRSEDTAVYYCARGGGSYDFFDYWGQGTLVTVSS
VL: ELELTQPPSVSVAPGKAARLSCGGEDIGIKSVHWYQQKTGRAPVLVIYNDDDRPSGIPERFAGSNSGNTATLTISRVEAGDEADYYCEVWDSLTDRVVFGGGTKLTVL
Consider B12, for which the binding result in test [2] is listed as “binds”.

B13: scFv 2-302 (scFv, V domains shown)
VH: EVQLVQSGAEVKKPGSSVKVSCKASGGTFSSYTINWVRQAPGQGLEWMGRIIPILGIENYAQKFQGRVTISADKSTSTAYMELSSLRSDDTAVYYCARDQVFGAYWGPGTLVTVSS
VL: ELVLTQPPSVSVAPGQTAIITCGGSNIGTKSVHWYQQKSGQAPVLVVHDDAHRPSGIPERFSGSNSGNTATLTISRVEAGDEADYYCQVWESSSDHWVFGGGTKVTVL
As for B13, in test [2], the binding result is “binds”.

B14: scFv 3-301 (scFv, V domains shown)
VH: EVQLVQSGAEVKKPGSSVKVSCKASGGTFSSYAISWVRQAPGQGLEWMGGIIPILGITNYAQKFQGRVTITADESTGAAYMELSSLASEDTAVYYCARDDTGRDDYFEYWGQGTLVTVSS
VL: ELVLTQPPSVSVSPGQTARITCSGDALPKQYAYWYQQKPGQAPVLVIYKDSERPSGIPERFSGSSSGTTVTLTISGVQAEDEADYYCQSADSNGTYKVFGGGTELTVL
As to B14, in test [1], the binding result is recorded as “no binding”.

B15: scFv 1-403 (scFv, V domains shown)
VH: QVQLQESGGGVVQPGRSLRLSCAASGFTFRNYAMHWVRQAPGKGLEWVAVISYDGGKEYYADSVKGRFTISRDNSKNTLYLQMNSLRAEDTAVYYCARDTFSYYDFWRAFDYWGQGTLVTVSS
VL: ELVMTQSPSSLSASVGDTVTITCRASQSLRGYLNWYQQKPGEAPKLLIYAASTLRAGVPPRFSGAGYETDFSLTISNLQLEDFATYYCQQSHNVPLTFGGGTKVEIK
B15: the binding result in test [2] was “binds”.
